B1: MlaE (natural protein, E. coli K-12, UniProt P64606 1-260, looked up)
chain: MLLNALASLGHKGIKTLRTFGRAGLMLFNALVGKPEFRKHAPLLVRQLYNVGVLSMLIIVVSGVFIGMVLGLQGYLVLTTYSAETSLGMLVALSLLRELGPVVAALLFAGRAGSALTAEIGLMRATEQLSSMEMMAVDPLRRVISPRFWAGVISLPLLTVIFVAVGIWGGSLVGVSWKGIDSGFFWSAMQNAVDWRMDLVNCLIKSVVFAITVTWISLFNGYDAIPTSAGISRATTRTVVHSSLAVLGLDFVLTALMFGN
notes: MlaE, the transmembrane (permease) subunit of the MlaFEDB ABC transporter, E. coli K-12; expressed from the full mlaFEDCB operon amplified from genomic DNA; Homodimer within the 2:2:6:2 MlaFEDB complex; also called TMD protein MlaE

How the values were obtained:
[1] = target: the molecule itself; test: cryo-EM structure; nucleotide-free MlaFEDB in POPG nanodisc (MSP1D1), 4 mg/mL, 25 mM Tris pH 7.8, 150 mM NaCl; 2.9 Å
[2] = target: the molecule itself; test: cryo-EM structure; MlaFEQEDB (MlaF E170Q) in nanodisc, incubated with 2 mM ATP and 2 mM MgCl2 for 30 min at room temperature; two conformations, EQ_tall (4.3 Å) and EQ_close (3.7 Å)
MlaE = target: B1; test: cryo-EM structure; nucleotide-free MlaFEDB in POPG nanodisc (MSP1D1), 4 mg/mL, 25 mM Tris pH 7.8, 150 mM NaCl; 2.9 Å; conditions: both partners purified

Binder	stoichiometry N [1]	further results
MlaF (natural protein, E. coli K-12, UniProt P63386 1-269, looked up, expressed from the full mlaFEDCB operon amplified from genomic DNA; Homodimer within the 2:2:6:2 MlaFEDB complex; also called NBD protein MlaF) MEQSVANLVDMRDVSFTRGNRCIFDNISLTVPRGKITAIMGPSGIGKTTLLRLIGGQIAPDHGEILFDGENIPAMSRSRLYTVRKRMSMLFQSGALFTDMNVFDNVAYPLREHTQLPAPLLHSTVMMKLEAVGLRGAAKLMPSELSGGMARRAALARAIALEPDLIMFDEPFVGQDPITMGVLVKLISELNSALGVTCVVVSHDVPEVLSIADHAWILADKKIVAHGSAQALQANPDPRVRQFLDGIADGPVPFRYPAGDYHADLLPGS	2	
MlaF E170Q (natural protein, E. coli K-12, UniProt P63386 1-269, looked up, MlaF, E. coli K-12, with the catalytic glutamate of Walker B changed to glutamine; expressed from the full mlaFEDCB operon; PDB 7CGE holds the wild-type parent; also called MlaFEQ; EQ mutant; source: E. coli C43(DE3), co-expressed from mutated pET20b-mlaFEDCB, purified as MlaFEQEDB, in nanodisc) MEQSVANLVDMRDVSFTRGNRCIFDNISLTVPRGKITAIMGPSGIGKTTLLRLIGGQIAPDHGEILFDGENIPAMSRSRLYTVRKRMSMLFQSGALFTDMNVFDNVAYPLREHTQLPAPLLHSTVMMKLEAVGLRGAAKLMPSELSGGMARRAALARAIALEPDLIMFDQPFVGQDPITMGVLVKLISELNSALGVTCVVVSHDVPEVLSIADHAWILADKKIVAHGSAQALQANPDPRVRQFLDGIADGPVPFRYPAGDYHADLLPGS		stoichiometry N [2]: 2
B1	2	
MlaD (natural protein, E. coli K-12, UniProt P64604 1-183, looked up, expressed from the full mlaFEDCB operon amplified from genomic DNA; Homo-hexamer within the 2:2:6:2 MlaFEDB complex) MQTKKNEIWVGIFLLAALLAALFVCLKAANVTSIRTEPTYTLYATFDNIGGLKARSPVSIGGVVVGRVADITLDPKTYLPRVTLEIEQRYNHIPDTSSLSIRTSGLLGEQYLALNVGFEDPELGTAILKDGDTIQDTKSAMVLEDLIGQFLYGSKGDDNKNSGDAPAAAPGNNETTEPVGTTK		stoichiometry N (MlaE): 3

From PMC7784689, “Structural mechanism of phospholipids translocation by MlaFEDB complex” (Cell Research, 2020)
